The numbers were not newly measured in paper PMC8959454, which cites them from elsewhere.

In one data set the target is CKAP4 ECD (Homo sapiens) (UniProt Q07065).
The next data set concerns the target LRP6 (Homo sapiens) (UniProt O75581).
Chain of UniProt O75581 (O75581 20-1370): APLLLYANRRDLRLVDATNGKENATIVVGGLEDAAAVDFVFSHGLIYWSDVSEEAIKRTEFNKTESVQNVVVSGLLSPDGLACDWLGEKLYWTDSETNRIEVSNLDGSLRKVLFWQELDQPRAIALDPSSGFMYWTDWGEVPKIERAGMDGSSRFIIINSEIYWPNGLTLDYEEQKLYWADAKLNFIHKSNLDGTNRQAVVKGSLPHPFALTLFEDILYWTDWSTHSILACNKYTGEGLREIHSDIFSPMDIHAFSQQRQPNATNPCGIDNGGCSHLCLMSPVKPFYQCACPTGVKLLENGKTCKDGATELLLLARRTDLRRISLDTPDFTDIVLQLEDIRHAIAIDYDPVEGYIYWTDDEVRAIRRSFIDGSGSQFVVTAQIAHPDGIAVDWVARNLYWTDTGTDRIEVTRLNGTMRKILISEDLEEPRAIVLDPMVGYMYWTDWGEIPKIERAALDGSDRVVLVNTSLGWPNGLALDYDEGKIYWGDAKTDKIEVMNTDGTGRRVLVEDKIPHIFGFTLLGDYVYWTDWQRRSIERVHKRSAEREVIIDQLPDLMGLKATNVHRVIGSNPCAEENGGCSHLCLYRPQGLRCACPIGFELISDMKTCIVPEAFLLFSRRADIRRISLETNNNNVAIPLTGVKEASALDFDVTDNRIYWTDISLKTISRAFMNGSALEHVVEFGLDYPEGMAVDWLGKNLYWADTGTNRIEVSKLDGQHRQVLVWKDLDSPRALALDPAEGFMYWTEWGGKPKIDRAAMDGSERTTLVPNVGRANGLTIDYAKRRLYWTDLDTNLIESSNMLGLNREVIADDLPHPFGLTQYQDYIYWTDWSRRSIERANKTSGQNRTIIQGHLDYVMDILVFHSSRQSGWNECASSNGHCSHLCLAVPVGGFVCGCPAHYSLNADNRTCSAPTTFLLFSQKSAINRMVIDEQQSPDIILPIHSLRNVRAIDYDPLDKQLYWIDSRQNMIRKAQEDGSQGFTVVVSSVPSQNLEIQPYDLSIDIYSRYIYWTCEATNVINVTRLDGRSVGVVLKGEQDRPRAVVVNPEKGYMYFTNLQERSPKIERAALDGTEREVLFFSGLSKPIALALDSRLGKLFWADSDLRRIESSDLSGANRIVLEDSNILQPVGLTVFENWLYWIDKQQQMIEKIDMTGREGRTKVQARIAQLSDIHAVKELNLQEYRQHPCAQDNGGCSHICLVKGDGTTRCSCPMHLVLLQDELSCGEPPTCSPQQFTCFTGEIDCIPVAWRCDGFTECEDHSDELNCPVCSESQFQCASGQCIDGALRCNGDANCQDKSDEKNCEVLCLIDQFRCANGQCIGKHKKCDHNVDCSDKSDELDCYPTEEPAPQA

Chain of UniProt Q07065 (Q07065 128-602): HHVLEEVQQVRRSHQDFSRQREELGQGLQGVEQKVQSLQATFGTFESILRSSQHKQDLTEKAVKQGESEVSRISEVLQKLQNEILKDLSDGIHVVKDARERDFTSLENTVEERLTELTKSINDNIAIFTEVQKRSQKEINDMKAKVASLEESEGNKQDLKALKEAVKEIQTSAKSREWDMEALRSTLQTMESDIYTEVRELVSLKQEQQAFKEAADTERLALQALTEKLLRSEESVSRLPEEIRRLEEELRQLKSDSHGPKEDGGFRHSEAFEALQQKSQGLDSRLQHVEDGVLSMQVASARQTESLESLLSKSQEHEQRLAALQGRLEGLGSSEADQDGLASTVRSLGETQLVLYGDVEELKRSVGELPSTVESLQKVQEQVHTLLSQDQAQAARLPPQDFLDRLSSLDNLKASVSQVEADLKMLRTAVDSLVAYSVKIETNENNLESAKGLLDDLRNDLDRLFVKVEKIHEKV

The Kd is the free concentration of one partner at which half of the binding sites on the other are occupied at equilibrium, for simple one-to-one binding. Consider DKK1 (from UniProt O94907), for which the Kd in the data set with CKAP4 ECD (Homo sapiens) and with LRP6 (Homo sapiens) was 420 pM in each case.
